In paper PMC7261163 (Nucleic Acids Research, 2020) one finds Kd and stoichiometry N data, which are given here for two compounds.

The target in assay [1] is T1, Mom (Escherichia phage Mu, UniProt P06018).
T1 sequence (P06018 12-241): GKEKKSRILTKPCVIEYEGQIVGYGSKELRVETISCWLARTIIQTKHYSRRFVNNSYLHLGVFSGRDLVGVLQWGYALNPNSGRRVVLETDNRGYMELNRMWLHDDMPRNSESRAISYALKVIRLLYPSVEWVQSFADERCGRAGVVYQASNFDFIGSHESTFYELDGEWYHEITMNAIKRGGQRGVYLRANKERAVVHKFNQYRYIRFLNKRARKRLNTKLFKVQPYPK
The assay can be described thus: microscale thermophoresis, fluorescently labelled Mom. The format is binding. In general terms: Microscale thermophoresis detects binding through changes in fluorescence in a small temperature gradient.

The target of assay [2] is Mom (bacteriophage Mu), untagged, purified (bacteriophage Mu) (UniProt P06018). The assay can be described thus: cross-linking.
Assay [3] shares this target. Description: SEC. Background: SEC sorts molecules by how far they enter the pores of the column.

Broadly, the Kd is a measure of binding affinity in units of concentration. Lower therefore signals tighter binding. Compound `CC(=O)SCCNC(=O)CCNC(=O)[C@H](O)C(C)(C)COP(=O)(O)OP(=O)(O)OC[C@H]1O[C@@H](n2cnc3c(N)ncnc32)[C@H](O)[C@@H]1OP(=O)(O)O` [acetyl CoA] displayed a dissociation constant (Kd) in assay [1] of around 49 µM. By stoichiometry N is commonly meant a count of units in the complex or per binding partner. Turning to “Mom (bacteriophage Mu), untagged, purified (from UniProt P06018 2-241) (enzyme)”, the stoichiometry N in assay [2] and in assay [3] was 2 each time.
